The source of these data is article PMC6600415.

The target of this experiment is low-density lipoprotein receptor-related protein 6 (LRP6), O75581.

B1: LysRS-DKK2-Fc fusion protein, Q9UBU2 34-259 (Fc fusion)
chain: KLNSIKSSLGGETPGQAANRSAGMYQGLAFGGSKKGKNLGQAYPCSSDKECEVGRYCHSPHQGSSACMVCRRKKKRCHRDGMCCPSTRCNNGICIPVTESILTPHIPALDGTRHRDRNHGHYSNHDLGWQNLGRPHTKMSHIKGHEGDPCLRSSDCIEGFCCARHFWTKICKPVLHQGEVCTKQRKKGSHGLEIFQRCDCAKGLSCKVWKDATYSSKARLHVCQKI
For B1, the TOPflash luciferase reporter activity in HEK 293T cells, percent inhibition, two concentrations up to 500 ng/mL (4.2 nM) worked out at 47%.

B2: TEV-cleaved LysRS-DKK2-Fc (DKK2-Fc released by TEV protease), Q9UBU2 34-259 (Fc fusion)
chain: KLNSIKSSLGGETPGQAANRSAGMYQGLAFGGSKKGKNLGQAYPCSSDKECEVGRYCHSPHQGSSACMVCRRKKKRCHRDGMCCPSTRCNNGICIPVTESILTPHIPALDGTRHRDRNHGHYSNHDLGWQNLGRPHTKMSHIKGHEGDPCLRSSDCIEGFCCARHFWTKICKPVLHQGEVCTKQRKKGSHGLEIFQRCDCAKGLSCKVWKDATYSSKARLHVCQKI
For the molecule B2, the TOPflash luciferase reporter activity in HEK 293T cells, percent inhibition; TEV-cleaved LysRS-DKK2-Fc (2): mixed with TEV protease and immediately added to cells was determined as 18%.
